Where “and” joins values, the source holds several entries; their conditions need not be identical. Equal entries are not always repeated.
Legend:
[1] = target: human proteasome α7 subunit, wild type (self-assembled homo-tetradecamer) (human) (UniProt P25788); assay: high-speed atomic force microscopy (HS-AFM); α7 adsorbed on APTES-mica, α6 added to the observation buffer to 1 μM; 20 mM Tris-HCl (pH 8.0), 150 mM NaCl; more than 20 min after the addition of α6; 10 fps, at most 1000 frames (100 s)
[2] = target: human proteasome α7 subunit, wild type (self-assembled homo-tetradecamer) (human) (UniProt P25788); assay: high-speed atomic force microscopy (HS-AFM); α7 alone adsorbed on bare mica; 20 mM Tris-HCl (pH 8.0), 150 mM NaCl; tapping mode
[3] = target: human proteasome α7 subunit, wild type (self-assembled homo-tetradecamer) (human) (UniProt P25788); assay: high-speed atomic force microscopy (HS-AFM); α7 alone adsorbed on APTES-mica; 20 mM Tris-HCl (pH 8.0), 150 mM NaCl; tapping mode

| dwell time of the bound state [1] [s] | percent of oligomers seen as double rings [2] [%] | percent of oligomers seen as double rings [3] [%] | stoichiometry N [3] | Substance |
| --- | --- | --- | --- | --- |
| > 100 | – | – | – | human proteasome α6 subunit, short isoform (from UniProt P25786 1-263) (natural protein) |
| – | 67 | 21 | 14 and 7 | human proteasome α7 subunit, wild type (self-assembled homo-tetradecamer) (from UniProt P25788 1-255) (natural protein) |
